Experimental data published in patent publication US20250034594A1, “RNA-GUIDED GENOME RECOMBINEERING AT KILOBASE SCALE” (THE BOARD OF TRUSTEES OF THE LELAND STANFORD JUNIOR …, priority 2021, published 2025).

Experiments:
[1] = system: DYNLT1 locus; assay: mKate knock-in gene-editing assay, RecE/RecT homologs, DYNLT1 locus; type: cell-based, human; conditions: HEK293 cells, MCP fusion, n=3
In short: (§1)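 RecE/RecT homologs from 15 microbial species, codon-optimized and each fused via E-XTEN linker to MCP with NLS, tested for mKate knock-in. Cells transfected by Lipofectamine 3000 (HEK293T 250 ng DNA/well; HeLa, HepG2 400 ng); knock-in efficiency measured by flow cytometry 72 h post-transfection.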

[2] = system: HSP90AA1 locus; assay: mKate knock-in gene-editing assay, RecE/RecT homologs, HSP90AA1 locus; type: cell-based, human; conditions: HEK293 cells, MCP fusion, n=3
In short: as §1

[3] = system: endogenous genome targets (ACTB, HSP90AA1); assay: Arrayed SSAP library screening, mKate knock-in assay (editing efficiency); type: cell-based; conditions: average of HSP90 and ACTB, 3 days after transfection
In short: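 Mammalian cells in duplicate were transfected with SSAP-encoding plasmids, with about 50% transfection efficiency. mKate knock-in positive cells and viability, by flow-cytometric live counts, were quantified three days later. RecT SSAP served as positive control and Flag-HA plasmid as negative control.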

[4] = system: mammalian cells; assay: Arrayed SSAP library screening, cell viability by live cell counts via flow cytometry; type: cell-based
In short: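 Each SSAP plasmid transfected in duplicate (~50% efficiency), with RecT SSAP as positive and Flag-HA as negative control. After three days, mKate-positive cells and viability by flow-cytometric live cell counts were quantified to gauge SSAP fitness effects.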

[5] = system: endogenous genomic loci (DYNLT1, HSP90AA1, AAVS1, ACTB) in HEK293T cells; assay: Kilobase mKate knock-in assay in HEK293T cells (flow cytometry); type: cell-based, human; conditions: for knock-in editing activity with dCas9, comparison of SSAPs: dCas9, MS2-MCP
Experimental: Transfection HEK293T cells were seeded into 96-well plates (Corning) 12-24 hours prior to transfection at a density of 30,000 cells/well, and 250 ng of total DNA was transfected per well. HeLa and HepG2 cells were seeded into 48-well plates (Corning) one day prior to transfection at a density of 50,000 and 30,000 cells/well respectively, and 400 ng of total DNA was transfected per well. Transfections were performed with Lipofectamine 3000 (Life Technologies) following the manufacturer's instructions.
(§2) Fluorescence-activated cell sorting (FACS) mKate knock-in efficiency was analyzed on a CytoFLEX flow cytometer (Beckman Coulter; Stanford Stem Cell FACS Core). 72 hours after transfection, cells were washed once with PBS and dissociated with TrypLE Express Enzyme (Thermo Fisher Scientific). Cell suspension was then transferred to a 96-well U-bottom plate (Thermo Fisher Scientific) and centrifuged at 300×G for 5 minutes. After removing the supernatant, pelleted cells were resuspended with 50 μl 4% FBS in PBS, and cells were sorted within 30 minutes of preparation.
HEK293T, Hela, HepG2 and U2OS cells were seeded into 96-well plates (Corning) 12-24 hours prior to transfection at a density of 30,000 cells/well, and 250 ng of total DNA was transfected per well. Cells were transfected with Lipofectamine 3000 (Life Technologies) following the manufacturer's instructions when the cell are ˜70% confluence. In brief, we used 250 ng total DNA, 0.4 ul Lip3000 reagent, mixed with 10 ul of Opti-MEM per well. For the 250 ng DNA, we used 160 ng of dCas9-SSAP guide RNA plasmids (for double sgRNAd design, use equal amount of the two guide RNA plasmids, e.g., 80 ng each), 60 ng of pMCP-RecT or GFP control plasmid (addgene #64539) and 30 ng of PCR template DNA (the PCR primer could be found in Table 7, the template sequence could be found in Supplementary Sequences). Three days later, the cells were analyzed using FACS.
as §2, with “mKate” for “Fluorescence-activated cell sorting (FACS) mKate”, “transfection or 96 hours after electroporation,” for “transfection,”, “twice” for “once”, “300 g” for “300×G”, “analyzed” for “sorted”, “after” for “of”

B1: EcRecT: Escherichia coli RecT SSAP; SEQ ID NO: 171 (Tables 8, 9), SEQ ID NO: 9; positive control in Table 9 (protein)
chain: MTKQPPIAKADLQKTQGNRAPAAIKNNDVISFINQPSMKEQLAAALPRHMTAERMIRIATTEIRKVPALGNCDTMSFVSAIVQCSQLGLEPGSALGHAYLLPFGNKNEKSGKKNVQLIIGYRGMIDLARRSGQIASLSARVVREGDEFNFEFGLDEKLIHRPGENEDAPVTHVYAVARLKDGGTQFEVMTRKQIELVRSQSKAGNNGPWVTHWEEMAKKTAIRRLFKYLPVSIEIQRAVSMDEKEPLTIDPADSSVLTGEYSVIDNSEE
- Mean mKate+ (%), DYNLT1 [1]: 9.9467%
- Mean mKate+ (%), HSP90AA1 [2]: 6.5467%
- Editing Efficiency (Normalized, Average, two targets) ([3]; fold over negative control (Flag_HA)): 3.807
- Editing Efficiency (Absolute, Average, two targets) ([3]; percent of mKate knock-in): 9.4225
- Cell Viability (Average, two targets) [4]: 0.8651
- activity in no-recruitment control ([5]; PCP no-recruitment control): efficiency increases in a recruitment-dependent manner
- genomic knock-in efficiency of kilobase cassette, dCas9 editing ([5]; SSAP candidate screen, HSP90AA1, DYNLT1, ACTB, human cells): ≤ 6%
- knock-in editing activity with dCas9, comparison of SSAPs ([5]; human cells): highest efficiency for dCas9 editing
- knock-in editing activity with dCas9, comparison of SSAPs ([5]; human cells, listed as RecT): higher knock-in editing activities relative to other SSAPs
- HDR / knock-in efficiency enhancement ([5]; five genomic sites (EMX1, VEGFA, HSP90AA1, DYNLT1, AAVS1), wtCas9): significantly enhanced HDR in all cases
- HDR efficiency for kb-scale knock-in ([5]; template bearing 600-800 bp total HA, without selection): over 10%
